Measurements taken from article PMC9352346.

Tests used:
GST-Smad4, Q13485 = target: T1, GST-Smad4, Q13485; experiment: GST pull-down, immunoblot band quantification; conditions: chain shown with the change; HEK293T cell lysate; n=3; read off a plot
T1 chain: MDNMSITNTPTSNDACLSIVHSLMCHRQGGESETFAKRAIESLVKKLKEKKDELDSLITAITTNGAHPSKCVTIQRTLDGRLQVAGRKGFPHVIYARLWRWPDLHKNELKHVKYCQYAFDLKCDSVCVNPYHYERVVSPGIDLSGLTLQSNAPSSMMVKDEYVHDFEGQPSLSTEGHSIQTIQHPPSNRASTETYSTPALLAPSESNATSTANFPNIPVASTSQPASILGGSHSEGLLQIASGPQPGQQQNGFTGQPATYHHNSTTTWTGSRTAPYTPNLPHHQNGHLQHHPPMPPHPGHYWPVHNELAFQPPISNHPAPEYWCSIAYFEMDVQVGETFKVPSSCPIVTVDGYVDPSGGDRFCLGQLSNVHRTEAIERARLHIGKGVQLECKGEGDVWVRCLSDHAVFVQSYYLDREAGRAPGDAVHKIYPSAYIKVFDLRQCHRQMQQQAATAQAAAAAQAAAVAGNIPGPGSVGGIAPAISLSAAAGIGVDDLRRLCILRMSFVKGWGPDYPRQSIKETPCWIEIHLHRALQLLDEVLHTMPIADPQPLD

GST-Smad4-MH2, Q13485 = target: T2, GST-Smad4-MH2, Q13485; experiment: GST pull-down, immunoblot band quantification; conditions: chain shown with the change; HEK293T cell lysate; n=3; read off a plot
T2 chain: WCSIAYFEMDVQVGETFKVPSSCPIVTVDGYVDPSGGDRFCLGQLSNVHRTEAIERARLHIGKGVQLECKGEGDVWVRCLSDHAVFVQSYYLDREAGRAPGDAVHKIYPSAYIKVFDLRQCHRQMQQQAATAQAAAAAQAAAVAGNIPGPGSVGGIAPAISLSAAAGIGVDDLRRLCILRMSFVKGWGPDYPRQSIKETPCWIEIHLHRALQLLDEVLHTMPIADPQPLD

other: relative amount of Arl15-AL-GFP pulled down (GST-Smad4, Q13485): 1
other: relative amount of Arl15-AL-GFP pulled down (GST-Smad4-MH2, Q13485): 0.55
B1: Arl15-WT-GFP A86L (protein)
chain: MSDLRITEAFLYMDYLCFRALCCKGPPPARPEYDLVCIGLTGSGKTSLLSKLCSESPDNVVSTTGFSIKAVPFQNAILNVKELGGLDNIRKYWSRYYQGSQGVIFVLDSASSEDDLEAARNELHSALQHPQLCTLPFLILANHQDKPAARSVQEIKKYFELEPLARGKRWILQPCSLDDMDALKDSFSQLINLLEEKDHEAVRM
